From publication PMC6458971

Target: AviTagged clade B YU-2 gp140 trimers (HIV-1 clade B, strain YU-2 | not stated)
Assay: SEC

Substance: AviTagged clade B YU-2 gp140 trimers (domain or fragment)
- stoichiometry N: 3
